From US20250084172A1 (23ANDME, published 2025)
Residue numbers refer to the chain shown, from its start. Numbers in names are those of the source.

T1: human soluble ULBP6 haplotype 02 (hULBP6_02) (human, UniProt Q5VY80 26-218)
T1 construct: also called sULBP6_02
T1 chain: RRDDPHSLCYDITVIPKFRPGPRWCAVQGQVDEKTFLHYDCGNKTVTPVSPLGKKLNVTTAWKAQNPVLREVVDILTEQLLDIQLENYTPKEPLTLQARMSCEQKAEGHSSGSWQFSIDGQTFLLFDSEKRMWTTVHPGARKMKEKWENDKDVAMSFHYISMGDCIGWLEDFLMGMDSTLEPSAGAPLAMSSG

T2: cynomolgus soluble ULBP2/6 (cULBP2/6) (cynomolgus, UniProt Q5VY80 28-217 (human entry), limits assumed)
T2 construct: also called cyno ULBP6; Cyno-cULBP2/6
T2 chain: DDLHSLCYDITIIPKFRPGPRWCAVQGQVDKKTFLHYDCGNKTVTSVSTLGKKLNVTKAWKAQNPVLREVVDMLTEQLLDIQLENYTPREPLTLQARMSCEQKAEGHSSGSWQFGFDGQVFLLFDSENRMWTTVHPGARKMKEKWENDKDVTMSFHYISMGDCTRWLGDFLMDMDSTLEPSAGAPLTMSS

T3: cynomolgus soluble ULBP5 (cULBP5) (cynomolgus)
T3 construct: also called Cyno-cULBP5
T3 chain: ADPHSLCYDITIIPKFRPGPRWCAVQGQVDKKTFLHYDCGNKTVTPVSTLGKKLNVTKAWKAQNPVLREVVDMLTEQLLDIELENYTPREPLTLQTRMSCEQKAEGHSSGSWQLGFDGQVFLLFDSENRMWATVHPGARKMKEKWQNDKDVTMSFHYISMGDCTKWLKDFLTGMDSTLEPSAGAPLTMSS

T4: human soluble ULBP6 haplotype 01 (hULBP6_01) (human, UniProt Q5VY80 27-218, limits assumed)
T4 construct: also called sULBP6_01
T4 chain: T1 chain with R1G, L81R, T122I

T5: human soluble ULBP5 (hULBP5) (human, UniProt Q6H3X3 26-218)
T5 construct: also called sULBP5
T5 sequence: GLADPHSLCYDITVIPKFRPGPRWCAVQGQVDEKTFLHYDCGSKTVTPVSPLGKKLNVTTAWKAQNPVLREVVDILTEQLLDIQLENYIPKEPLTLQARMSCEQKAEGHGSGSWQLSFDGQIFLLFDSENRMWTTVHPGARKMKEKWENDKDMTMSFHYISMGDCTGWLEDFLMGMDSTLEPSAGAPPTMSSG

T6: human soluble ULBP2 (hULBP2) (human, UniProt Q9BZM5 26-216)
T6 construct: also called sULBP2
T6 sequence: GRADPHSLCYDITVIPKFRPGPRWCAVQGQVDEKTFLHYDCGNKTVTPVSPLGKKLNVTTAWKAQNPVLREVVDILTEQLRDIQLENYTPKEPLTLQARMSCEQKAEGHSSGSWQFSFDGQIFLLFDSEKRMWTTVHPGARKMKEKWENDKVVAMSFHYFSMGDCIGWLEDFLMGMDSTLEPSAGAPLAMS

T7: cell surface ULBP6_01 on COV644 cells (human, UniProt Q5VY80 27-218)
T7 construct: whole, on cells; also called cell surface ULBP6 (COV644)
T7 chain: T1 chain with R1G, L81R, T122I

T8: cell surface ULBP6_02 on PANC02.13 cells (human, UniProt Q5VY80 26-218)
T8 construct: whole, on cells; also called cell surface ULBP6 (PANC02.13)
T8 chain: T1 chain

T9: human ULBP6 displayed on M13 phage (ULBP6-HA-pIII) (human, UniProt Q5VY80 26-218)
T9 construct: also called ULBP6 phage; not shown: M13 minor coat protein pIII
T9 sequence: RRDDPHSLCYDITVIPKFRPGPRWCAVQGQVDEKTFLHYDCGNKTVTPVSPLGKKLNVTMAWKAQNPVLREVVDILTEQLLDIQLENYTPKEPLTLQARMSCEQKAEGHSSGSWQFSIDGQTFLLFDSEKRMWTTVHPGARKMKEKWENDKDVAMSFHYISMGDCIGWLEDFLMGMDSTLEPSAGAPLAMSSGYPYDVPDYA

B1: Humanized 6E1 (h6E1) (E-) (antibody, human IgG1, kappa, N297G, V domains shown)
VH: EVQLVQSGAEVKKPGASVKVSCKASGYTFTNYWMHWMRQAPGQGLEWLGRIHPSDSDTNYNQKFKGRATLTVDKSISTAYMELSRLRSDDTAVYYCAIEGTGKGYFDVWGRGTLVTVSS
VL: DIQMTQSPSSLSASVGDRVTITCKASQDIYSYLSWFQQKPGKSPKTLIYRANRLVDGVPSRFSGSGSGQDFTLTISSLQPEDFATYYCLHYDEFPLTFGGGTKVEIKR
notes: hIgG1 with N297G (effector negative)
B2: humanized 1D4 (h1D4), Fc version not stated (antibody, V domains shown)
VH: EIQLVQSGSELKKPGASVKVSCKASGYTFTEYPIHWVRQAPGQGFEWMGMIYTDTGEPTHAEEFKGRFVFSLDTSVSTAYLQISSLKAEDTAVYFCVRWYDGSSYIMDYWGQGTTVTVSS
VL: DIQMTQSPSSLSASVGDRVTITCKASQDINSYLSWFQQKPGKSPKTLIYRANRLVDGVPSRFSGSGSGQDYTFTISSLQPEDIATYYCLQYDEFPLTFGGGTKVEIK
notes: Recombinant humanized antibody, hIgG1 backbone with kappa light chain; also called hiD4; hu1D4
B3: Humanized 1D4 (h1D4) (E-) (antibody, human IgG1, kappa, N297G, V domains shown)
VH: B2 VH
VL: B1 VL with Y30N, F71Y, L73F, F83I, H90Q
notes: as for B1
B4: humanized 6E1 (h6E1), Fc version not stated (antibody, V domains shown)
VH: B1 VH
VL: B2 VL with N30Y, Y71F, F73L, I83F, Q90H
notes: Recombinant humanized antibody, hIgG1 backbone with kappa light chain; also called hu6E1; PUR3993
B5: human soluble MICB (hMICB) (ligand)
chain: AEPHSLRYNLMVLSQDESVQSGFLAEGHLDGQPFLRYDRQKRRAKPQGQWAEDVLGAKTWDTETEDLTENGQDLRRTLTHIKDQKGGLHSLQEIRVCEIHEDSSTRGSRHFYYDGELFLSQNLETQESTVPQSSRAQTLAMNVTNFWKEDAMKTKTHYRAMQADCLQKLQRYLKSGVAIRRTVPPMVNVTCSEVSEGNITVTCRASSFYPRNITLTWRQDGVSLSHNTQQWGDVLPDGNGTYQTWVATRIRQGEEQRFTCYMEHSGNHGTHPVPSGKVLVLQSQRTD
notes: the printed Uniprot number (29983) looks wrong; also called sMICB
B6: humanized 8E11 (h8E11), Fc version not stated (antibody, V domains shown)
VH: EVQLVESGGGLVQPGGSLRLSCAASGFTFRTYGMHWVRQAPGKGLEWVAYISSGSGTIDYADTVKGRFTISRDNAKNSLYLQMNSLRAEDTAVYYCTRQTGAMDYWGQGTLVTVSS
VL: EIVLTQSPATLSLSPGERATLSCSASSSVSYMNWYQQKPGQSPRLWIYGISNLASGVPARFSGSGSGTDFTLTISSLEPEDFAVYYCQQRSSHPLTFGGGTKVEIK
notes: Recombinant humanized antibody, hIgG1 backbone with kappa light chain; also called PUR3926

Legend:
[1] = molecular target: T1, human soluble ULBP6 haplotype 02 …; assay: SPR (BIACORE);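 further: soluble human and cynomolgus NKG2D ligands injected as analytes in 3-fold dilution series spanning 0.01 to 50 nM at 37 °C, reference-subtracted sensorgrams fitted to a 1:1 Langmuir model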
[2] = molecular target: T2, cynomolgus soluble ULBP2/6 (cULBP2/6); assay: SPR (BIACORE);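 further: soluble human and cynomolgus NKG2D ligands injected as analytes in 3-fold dilution series spanning 0.01 to 50 nM at 37 °C, reference-subtracted sensorgrams fitted to a 1:1 Langmuir model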
[3] = molecular target: T3, cynomolgus soluble ULBP5 (cULBP5); assay: SPR (BIACORE);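 further: soluble human and cynomolgus NKG2D ligands injected as analytes in 3-fold dilution series spanning 0.01 to 50 nM at 37 °C, reference-subtracted sensorgrams fitted to a 1:1 Langmuir model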
[4] = molecular target: T4, human soluble ULBP6 haplotype 01 …; assay: SPR (BIACORE);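 further: soluble human and cynomolgus NKG2D ligands injected as analytes in 3-fold dilution series spanning 0.01 to 50 nM at 37 °C, reference-subtracted sensorgrams fitted to a 1:1 Langmuir model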
[5] = molecular target: T5, human soluble ULBP5 (hULBP5); assay: SPR (BIACORE)
[6] = molecular target: T6, human soluble ULBP2 (hULBP2); assay: SPR (BIACORE)
[7] = molecular target: T4, human soluble ULBP6 haplotype 01 …; assay: blocking ELISA; hNKG2D coated, antibody titrated with biotinylated hULBP6_01
[8] = molecular target: T1, human soluble ULBP6 haplotype 02 …; assay: blocking ELISA; hNKG2D coated, antibody titrated with biotinylated hULBP6_02
[9] = molecular target: T1, human soluble ULBP6 haplotype 02 …; assay: SPR (BIACORE 8K, 37 C); antibody captured on Protein A, soluble ULBP injected;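 further: ligand injected as threefold dilution series in HBS-P (highest 10 or 50 nM), reference-cell and buffer-subtracted sensorgrams fitted with a 1:1 Langmuir model for on and off rates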
[10] = molecular target: T2, cynomolgus soluble ULBP2/6 (cULBP2/6); assay: as above
[11] = molecular target: T3, cynomolgus soluble ULBP5 (cULBP5); assay: as above
[12] = molecular target: T4, human soluble ULBP6 haplotype 01 …; assay: as above
[13] = molecular target: T6, human soluble ULBP2 (hULBP2); assay: as above
[14] = molecular target: T7, cell surface ULBP6_01 on COV644 cells; assay: flow cytometry on COV644 cells, anti-hFc-APC detection, average of 2 replicates
[15] = molecular target: T8, cell surface ULBP6_02 on PANC02.13 cells; assay: flow cytometry on PANC02.13 cells, anti-hFc-APC detection, average of 2 replicates
[16] = molecular target: T7, cell surface ULBP6_01 on COV644 cells; assay: flow cytometry; blocking of hNKG2D-mFc binding to COV644 cells, average of 2 replicates
[17] = molecular target: T9, human ULBP6 displayed on M13 phage …; assay: phage ELISA: plate coated with the antibody, ULBP6 phage titrated in 3-fold steps from 1.0 O.D./mL, HRP anti-M13 detection, O.D. 450
[18] = molecular target: hNKG2D-Fc (human NKG2D 78-216 with C-terminal long huFc-Flag tag) (human); assay: SPR (BIACORE 8K, 37 C); hNKG2D-Fc captured on Protein A, soluble ligand injected
Chain of hNKG2D-Fc (human NKG2D 78-216 with C-terminal long huFc-Flag tag) (human) (chain, as listed by the source limits assumed): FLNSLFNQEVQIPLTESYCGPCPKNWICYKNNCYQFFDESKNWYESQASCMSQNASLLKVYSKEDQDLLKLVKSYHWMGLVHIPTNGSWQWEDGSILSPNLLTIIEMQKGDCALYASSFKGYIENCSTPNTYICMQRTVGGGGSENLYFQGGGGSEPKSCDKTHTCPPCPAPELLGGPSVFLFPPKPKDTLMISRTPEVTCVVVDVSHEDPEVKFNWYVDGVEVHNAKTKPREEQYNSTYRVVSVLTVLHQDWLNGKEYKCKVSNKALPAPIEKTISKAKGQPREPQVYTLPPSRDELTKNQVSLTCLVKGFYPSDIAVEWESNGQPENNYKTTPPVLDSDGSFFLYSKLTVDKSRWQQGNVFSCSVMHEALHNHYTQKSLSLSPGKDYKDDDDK

Row | Binder | Kd [1] [nM] | Kd [9] [nM] | koff [9] [s⁻¹] | kon [9] [M⁻¹ s⁻¹] | Kd [10] [nM] | koff [10] [s⁻¹] | kon [10] [M⁻¹ s⁻¹] | Kd [11] [nM] | koff [11] [s⁻¹] | kon [11] [M⁻¹ s⁻¹] | Kd [12] [nM] | koff [12] [s⁻¹] | kon [12] [M⁻¹ s⁻¹] | Kd [13] [nM] | koff [13] [s⁻¹] | kon [13] [M⁻¹ s⁻¹] | EC50 [14] [nM] | EC50 [15] [nM] | IC50 [16] [nM] | EC50 (read off the curve) [17] | further results
1 | B1 | 0.68 | – | – | – | – | – | – | – | – | – | – | – | – | – | – | – | – | – | – | – | Kd [2]: 1.76 nM; Kd [3]: 1.03 nM; Kd [4]: 4.38 nM; Kd [5]: 8.7 nM; Kd [6]: 8.91 nM; IC50 [7]: 10.2 nM; IC50 [8]: 0.103 nM
2 | B2 | – | 1.31 | 0.00215 | 1.64e+06 | 0.151 | 0.00133 | 8.84e+06 | 0.735 | 0.00105 | 1.43e+06 | 0.422 | 0.00114 | 2.69e+06 | 0.642 | 0.00148 | 2.31e+06 | 1.4 | 0.72 | 0.22 | ~0.006 O.D. (phage) | –
3 | B3 | 1.06 | – | – | – | – | – | – | – | – | – | – | – | – | – | – | – | – | – | – | – | Kd [2]: 0.99 nM; Kd [3]: 0.63 nM; Kd [4]: 0.41 nM; Kd [5]: 8.88 nM; Kd [6]: 0.47 nM; IC50 [7]: 7.7 nM; IC50 [8]: 0.265 nM
4 | B4 | – | 0.939 | 0.00664 | 7.07e+06 | 0.415 | 0.0115 | 2.77e+07 | 1.51 | 0.00922 | 6.1e+06 | 5.24 | 0.0246 | 4.7e+06 | 10.7 | 0.0386 | 3.62e+06 | 0.36 | 0.44 | 0.2 | ~0.006 O.D. (phage) | –
5 | B5 | – | – | – | – | – | – | – | – | – | – | – | – | – | – | – | – | – | – | – | – | Kd [18]: 118 nM
6 | B6 | – | 0.383 | 0.000459 | 1.2e+06 | 11.4 | 0.0045 | 396000 | 23.9 | 0.00333 | 139000 | 0.331 | 0.000492 | 1.48e+06 | 0.662 | 0.000542 | 819000 | 1.29 | 1.28 | 0.11 | ~0.006 O.D. (phage) | –
